Source: PMC11091055 (Signal Transduction and Targeted Therapy, 2024)
Residue numbers refer to the chain shown, from its start.

Experiments:
Assay in all cases: SPR
Details in all cases: both partners purified
[1] = molecular target: T1, SARS-CoV-2 Omicron XBB S NTD, human Fc-tagged (SARS-CoV-2 Omicron XBB, strain)
T1 construct: also called XBB NTD
T1 chain: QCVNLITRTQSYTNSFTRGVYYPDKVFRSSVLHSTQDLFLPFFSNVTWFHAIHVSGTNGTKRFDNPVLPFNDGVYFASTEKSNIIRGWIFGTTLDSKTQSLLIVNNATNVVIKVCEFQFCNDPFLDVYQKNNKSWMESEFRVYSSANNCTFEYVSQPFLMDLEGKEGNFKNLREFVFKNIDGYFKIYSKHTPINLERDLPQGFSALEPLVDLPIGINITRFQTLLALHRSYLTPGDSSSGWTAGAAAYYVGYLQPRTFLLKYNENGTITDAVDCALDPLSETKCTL

[2] = molecular target: T2, SARS-CoV-2 Omicron XBB.1.16 S NTD, human Fc-tagged (SARS-CoV-2 Omicron XBB.1.16, strain)
T2 construct: also called XBB.1.16 NTD
T2 chain: T1 chain with V67A, E163V, G235V

[3] = molecular target: T3, SARS-CoV-2 Delta S NTD, human Fc-tagged (SARS-CoV-2 Delta (B.1.617.2), strain)
T3 construct: also called Delta NTD

[4] = molecular target: T4, SARS-CoV-2 Omicron BA.3 S NTD, human Fc-tagged (SARS-CoV-2 Omicron BA.3, strain)
T4 construct: also called BA.3 NTD

[5] = molecular target: T5, SARS-CoV-2 Omicron BA.2 S NTD, human Fc-tagged (SARS-CoV-2 Omicron BA.2, strain)
T5 construct: also called BA.2 NTD
T5 chain: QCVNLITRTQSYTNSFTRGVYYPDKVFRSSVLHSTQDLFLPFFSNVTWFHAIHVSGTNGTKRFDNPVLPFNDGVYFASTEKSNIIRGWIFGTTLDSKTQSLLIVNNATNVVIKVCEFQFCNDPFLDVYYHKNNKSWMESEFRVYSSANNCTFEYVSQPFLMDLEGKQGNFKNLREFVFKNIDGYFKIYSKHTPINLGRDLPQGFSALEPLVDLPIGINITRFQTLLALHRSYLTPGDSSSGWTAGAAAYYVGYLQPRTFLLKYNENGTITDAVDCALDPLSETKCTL

[6] = molecular target: T6, SARS-CoV-2 Omicron XBB.1.5 S NTD, human Fc-tagged (SARS-CoV-2 Omicron XBB.1.5, strain)
T6 construct: also called XBB.1.5 NTD
T6 chain: T1 chain with V67A

[7] = molecular target: T7, SARS-CoV-2 Omicron BA.2.86 S NTD, human Fc-tagged (SARS-CoV-2 Omicron BA.2.86, strain)
T7 construct: also called BA.2.86 NTD
T7 chain: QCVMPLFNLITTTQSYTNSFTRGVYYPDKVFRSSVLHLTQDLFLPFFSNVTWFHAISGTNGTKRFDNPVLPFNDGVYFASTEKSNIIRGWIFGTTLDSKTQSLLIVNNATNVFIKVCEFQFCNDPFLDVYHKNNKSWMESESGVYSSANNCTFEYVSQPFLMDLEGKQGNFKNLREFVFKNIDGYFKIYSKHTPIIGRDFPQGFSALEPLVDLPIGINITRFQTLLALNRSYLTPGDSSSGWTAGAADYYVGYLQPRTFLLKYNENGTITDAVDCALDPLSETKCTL

[8] = molecular target: T8, SARS-CoV-2 Omicron BA.1 S NTD, human Fc-tagged (SARS-CoV-2 Omicron BA.1, strain)
T8 construct: also called BA.1 NTD

[9] = molecular target: T9, SARS-CoV-2 Omicron JN.1 S NTD, human Fc-tagged (SARS-CoV-2 Omicron JN.1, strain)
T9 construct: also called JN.1 NTD
T9 chain: T7 chain

[10] = molecular target: T10, SARS-CoV-2 Omicron BA.2.75 S NTD, human Fc-tagged (SARS-CoV-2 Omicron BA.2.75, strain)
T10 construct: also called BA.2.75 NTD
T10 chain: T5 chain with K131E, W136R, F141L, I194V, G241S

[11] = molecular target: T11, SARS-CoV-2 Omicron BA.5 S NTD, human Fc-tagged (SARS-CoV-2 Omicron BA.5, strain)
T11 construct: also called BA.5 NTD
T11 chain: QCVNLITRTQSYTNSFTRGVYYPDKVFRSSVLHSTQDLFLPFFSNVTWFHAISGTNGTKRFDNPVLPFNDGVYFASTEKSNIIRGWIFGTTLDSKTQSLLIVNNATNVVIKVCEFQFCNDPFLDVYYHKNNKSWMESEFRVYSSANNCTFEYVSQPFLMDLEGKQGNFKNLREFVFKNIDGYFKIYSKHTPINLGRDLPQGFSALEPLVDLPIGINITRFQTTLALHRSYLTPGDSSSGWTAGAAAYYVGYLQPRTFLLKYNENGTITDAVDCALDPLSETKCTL

[12] = molecular target: T12, SARS-CoV-2 Omicron BA.2.3.20 S NTD, human Fc-tagged (SARS-CoV-2 Omicron BA.2.3.20, strain)
T12 construct: also called BA.2.3.20 NTD
T12 chain: T5 chain

[13] = molecular target: T13, SARS-CoV-2 Lambda S NTD, human Fc-tagged (SARS-CoV-2 Lambda (C.37), strain)
T13 construct: also called Lambda NTD
T13 chain: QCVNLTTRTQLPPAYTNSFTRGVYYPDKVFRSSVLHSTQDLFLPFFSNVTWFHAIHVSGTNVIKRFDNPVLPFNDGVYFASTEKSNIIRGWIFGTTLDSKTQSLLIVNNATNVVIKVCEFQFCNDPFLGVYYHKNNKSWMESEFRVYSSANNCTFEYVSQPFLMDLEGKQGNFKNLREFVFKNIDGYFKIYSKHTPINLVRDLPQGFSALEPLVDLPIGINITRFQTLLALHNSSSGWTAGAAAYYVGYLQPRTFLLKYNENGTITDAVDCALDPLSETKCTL

[14] = molecular target: T14, SARS-CoV-2 Omicron EG.5.1 S NTD, human Fc-tagged (SARS-CoV-2 Omicron EG.5.1, strain)
T14 construct: also called EG.5.1 NTD
T14 chain: T1 chain with Q36H, V67A, G235V

Measured: Kd

B1: nanobody N235, His-tagged (VHH)
VHH: QVQLQESGGGLVQPGGSLRLSCAASGLIISRYDMSWYRQAPGKERELVATTPIPAARPQYADSVKGRFTISRDNAKNTVSLQMNSLKPEDTAVYYCNLGPESQDHNYNYWGQGTQVTVSS
< 0.2 nM: all assays above
